From patent publication US20250197473A1 come the findings set out here.

Like-named read-outs stand apart in the source and are kept apart here.

Test in all cases: ELISA
Background: An ELISA detects its analyte on a solid surface through an enzyme-linked reagent.

For assay [1], the target named is PD-1.
Assay [2] concerns the target CTLA-4.
Assay [3] deals with PD-1. This is another data set of the same source.
Assay [4] has as its target CTLA-4. The source holds these as a separate data set.

For the substance “B7.1/PD-L2 composition (a B7.1 domain linked to a PD-L2 domain plus an Fc domain) (Fc fusion)”, in the assay with PD-1 [1], the PD-1 Relative Binding worked out at 0. The CLTA-4 Relative Binding with CTLA-4 [2] came to 0.548.
For the substance “B7.1 domain only plus Fc construct (Fc fusion)”, the values for the PD-1 Relative Binding with PD-1 [1] and with PD-1 [3] were 0 and 0.004, respectively. Moreover, the CLTA-4 Relative Binding with CTLA-4 [2] worked out at 0.236; in the assay with CTLA-4 [4], 3.26.
In the assay with PD-1 [3], “PD-L2 domain only plus Fc construct (Fc fusion)” displayed a PD-1 Relative Binding of 1.77. For the same substance, the CLTA-4 Relative Binding in the assay with CTLA-4 [4] came out at 0.008.
On to “PD-L2/B7.1 Dual Checkpoint (dual checkpoint inhibitor composition comprising, from the N-terminus to the C-terminus, a PD-L2 domain linked to a B7.1 domain plus a Fc domain) (Fc fusion)”, for which the figures for the PD-1 Relative Binding with PD-1 [1] and with PD-1 [3] were 0.088 and 3.37, respectively. Besides, the CLTA-4 Relative Binding was determined as 0.266 with CTLA-4 [2] and 1.65 with CTLA-4 [4].
